# Test results reported in PMC4306524 (Molecular Cell, 2015).
# T1: Bacillus subtilis Smc protein (Bacillus subtilis, UniProt P51834 1-1186)
# T1 sequence (looked up): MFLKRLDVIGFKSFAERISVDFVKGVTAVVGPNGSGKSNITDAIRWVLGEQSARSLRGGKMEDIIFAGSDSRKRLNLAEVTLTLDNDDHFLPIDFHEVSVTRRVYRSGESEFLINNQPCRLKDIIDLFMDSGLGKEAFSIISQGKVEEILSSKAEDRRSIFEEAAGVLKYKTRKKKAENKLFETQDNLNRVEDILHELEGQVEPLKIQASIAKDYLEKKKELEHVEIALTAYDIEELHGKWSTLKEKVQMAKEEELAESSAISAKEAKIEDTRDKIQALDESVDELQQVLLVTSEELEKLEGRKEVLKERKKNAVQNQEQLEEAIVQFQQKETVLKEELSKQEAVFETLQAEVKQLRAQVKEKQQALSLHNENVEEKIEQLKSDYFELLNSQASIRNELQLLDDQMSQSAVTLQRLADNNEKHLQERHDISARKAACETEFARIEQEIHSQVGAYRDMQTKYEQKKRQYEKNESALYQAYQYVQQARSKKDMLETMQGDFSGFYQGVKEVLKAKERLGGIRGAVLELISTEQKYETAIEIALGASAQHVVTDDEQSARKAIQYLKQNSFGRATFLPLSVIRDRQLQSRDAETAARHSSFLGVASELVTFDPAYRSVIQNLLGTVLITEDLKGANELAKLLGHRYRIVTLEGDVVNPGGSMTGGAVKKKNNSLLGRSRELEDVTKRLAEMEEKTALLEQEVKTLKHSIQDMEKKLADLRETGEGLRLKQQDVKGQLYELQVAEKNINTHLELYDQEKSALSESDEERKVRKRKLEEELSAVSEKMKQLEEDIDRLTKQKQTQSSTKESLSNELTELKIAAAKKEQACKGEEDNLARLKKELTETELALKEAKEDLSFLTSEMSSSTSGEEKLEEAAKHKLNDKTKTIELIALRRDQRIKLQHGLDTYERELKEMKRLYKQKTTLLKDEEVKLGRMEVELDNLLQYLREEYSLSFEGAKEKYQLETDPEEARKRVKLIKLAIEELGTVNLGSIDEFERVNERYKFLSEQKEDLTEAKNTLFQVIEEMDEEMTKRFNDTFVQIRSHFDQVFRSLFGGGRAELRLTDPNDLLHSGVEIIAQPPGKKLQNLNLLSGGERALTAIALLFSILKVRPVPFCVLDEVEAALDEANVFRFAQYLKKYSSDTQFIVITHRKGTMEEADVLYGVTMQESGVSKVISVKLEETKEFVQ
# T2: ScSmc2H-CC110;ScSmc4H-CC110 (Saccharomyces cerevisiae?;Saccharomyces …, UniProt P38989;Q12267 396-792;555-951, |)
# T2 sequence 1: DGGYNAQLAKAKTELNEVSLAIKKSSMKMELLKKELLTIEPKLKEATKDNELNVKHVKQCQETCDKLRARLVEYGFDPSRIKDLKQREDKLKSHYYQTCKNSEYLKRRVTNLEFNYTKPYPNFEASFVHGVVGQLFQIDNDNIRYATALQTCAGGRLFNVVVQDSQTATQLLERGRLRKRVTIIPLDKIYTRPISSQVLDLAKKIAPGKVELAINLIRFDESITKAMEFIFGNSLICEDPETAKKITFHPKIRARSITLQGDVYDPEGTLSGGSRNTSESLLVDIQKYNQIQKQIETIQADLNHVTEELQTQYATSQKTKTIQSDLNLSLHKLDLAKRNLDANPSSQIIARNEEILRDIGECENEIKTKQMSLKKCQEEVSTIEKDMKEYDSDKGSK
# T2 sequence 2: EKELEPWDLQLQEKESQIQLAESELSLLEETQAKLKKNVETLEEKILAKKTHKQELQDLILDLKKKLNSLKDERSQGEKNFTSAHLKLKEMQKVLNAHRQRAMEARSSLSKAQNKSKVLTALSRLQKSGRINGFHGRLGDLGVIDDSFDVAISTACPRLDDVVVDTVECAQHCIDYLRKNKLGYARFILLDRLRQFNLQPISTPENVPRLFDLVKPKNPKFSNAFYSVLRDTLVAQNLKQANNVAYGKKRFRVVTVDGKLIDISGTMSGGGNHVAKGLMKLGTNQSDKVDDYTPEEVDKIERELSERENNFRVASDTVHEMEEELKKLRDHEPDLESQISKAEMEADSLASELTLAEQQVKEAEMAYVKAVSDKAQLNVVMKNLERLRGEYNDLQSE
# T3: BsSmcH-CC8 (Bacillus subtilis, UniProt P51834 489-680)
# T3 sequence: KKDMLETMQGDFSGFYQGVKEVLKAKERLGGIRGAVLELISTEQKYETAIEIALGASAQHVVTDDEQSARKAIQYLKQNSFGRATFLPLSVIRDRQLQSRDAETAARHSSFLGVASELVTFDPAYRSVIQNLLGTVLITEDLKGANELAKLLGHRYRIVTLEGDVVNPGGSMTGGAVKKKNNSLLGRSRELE
# T4: BsSmcH (Bacillus subtilis, UniProt P51834 498-665)
# T4 sequence: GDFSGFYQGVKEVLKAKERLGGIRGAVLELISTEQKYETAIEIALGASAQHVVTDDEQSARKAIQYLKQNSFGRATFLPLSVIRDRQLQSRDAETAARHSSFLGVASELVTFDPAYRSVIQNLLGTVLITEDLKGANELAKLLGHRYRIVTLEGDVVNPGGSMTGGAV
# T5: BsSmcH-CC100 (Bacillus subtilis, UniProt P51834 400-776)
# T5 sequence: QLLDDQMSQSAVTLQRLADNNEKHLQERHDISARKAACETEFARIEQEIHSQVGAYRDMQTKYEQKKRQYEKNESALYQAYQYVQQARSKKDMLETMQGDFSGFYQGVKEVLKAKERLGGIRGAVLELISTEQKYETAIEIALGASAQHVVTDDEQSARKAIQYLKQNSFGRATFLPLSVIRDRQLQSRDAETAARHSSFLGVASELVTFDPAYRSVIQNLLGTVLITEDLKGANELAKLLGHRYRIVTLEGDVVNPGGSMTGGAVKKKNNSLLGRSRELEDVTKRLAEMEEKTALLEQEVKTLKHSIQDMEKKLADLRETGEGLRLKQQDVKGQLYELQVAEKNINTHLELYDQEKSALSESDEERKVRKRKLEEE
# T6: Bs Smc (Bacillus subtilis, UniProt P51834 1-1186)
# T6 sequence: T1 sequence (looked up)
# B1: Bacillus subtilis ScpA (natural protein, UniProt P35154 1-251, looked up)
# chain: MEEYQVKIDTFEGPLDLLLHLINRLEIDIYDIPVAKITEQYLLYVHTMRVLELDIASEYLVMAATLLSIKSRMLLPKQEEELFEDELLEEEDPREELIEKLIEYRKYKDAAKDLKEREEERQKSFTKPPSDLSEYAKEVKQSEQKLSVTVYDMIGAFQKVLKRKKINRPMETTITRQDIPIEARMNEIVHSLKSRGTRINFMDLFPYEQKEHLVVTFLAVLELMKNQLVLIEQEHNFSDIYITGSESIHGA
# B2: Bacillus subtilis ScpB (natural protein, UniProt P35155 1-197, looked up)
# chain: MGLDIVNWKAIVEALLYAAGDEGLTKKQLLTVLEIEEPELNTIMADVADEYRGDTRGIELIEYADTYMLSTKKDFAPYLKKLIEVPSKGLSQASLEVLAIVSYKQPITRAEIEEIRGVKSERILHSLVAKALLCEVGRADGPGRAILYGTTPTFLEQFGLKTLDELPPLPENAEEDVLQEEADLFFENFNQTFEDIK
# B3: ds40 (dsDNA)
# DNA 1: TTAGTTGTTCGTAGTGCTCGTCTGGCTCTGGATTACCCGC
# DNA 2: GCGGGTAATCCAGAGCCAGACGAGCACTACGAACAACTAA
# Columns and labels:
# [1] = target: T1, Bacillus subtilis Smc protein; assay: SEC-MALS
# SEC-MALS = target: the molecule itself; assay: SEC-MALS
# Bacillus subtilis ScpA = target: B1; assay: SEC-MALS
# [2] = target: T2, ScSmc2H-CC110;ScSmc4H-CC110; assay: fluorescence anisotropy
# BsSmcH-CC8 = target: T3, BsSmcH-CC8; assay: fluorescence anisotropy
# BsSmcH = target: T4, BsSmcH; assay: fluorescence anisotropy
# BsSmcH-CC100 = target: T5, BsSmcH-CC100; assay: fluorescence anisotropy
# Bs Smc = target: T6, Bs Smc; assay: fluorescence anisotropy
binder,measurement,setting,value
B1,binding result,[1],binds
B2,binding result,SEC-MALS,binds
same,binding result,Bacillus subtilis ScpA,binds
same,binding result,[1],binds
B3,Kd,[2],~50 nM
same,Kd,BsSmcH-CC8,~200 nM
same,binding result,BsSmcH,no binding
same,Kd,BsSmcH-CC100,~100 nM
same,Kd,Bs Smc,~100 nM
